This assay concerns the target P2C-1F11 monoclonal antibody (human). Briefly: SPR. A general note: Surface plasmon resonance follows binding to a sensor surface in real time, without labels.

What is called Kd is a measure of binding affinity in units of concentration. Lower therefore signals tighter binding.

As to “SARS-CoV-2 receptor-binding domain (RBD), residues Arg319 to Lys529 (from UniProt P0DTC2 319-529) (domain or fragment)”, the dissociation constant (Kd) was found to be 1.72 nM.

The values are drawn from article PMC7801515.
